Experimental data reported in publication PMC4197845 (International journal of cancer. Journal international du …, 2011).

Assays:
[1] = biological target: EGFR as used for SPR (BIAcore) (Homo sapiens, UniProt P00533); experiment: SPR
[2] = biological target: EGFR extra-cellular domain (EGFR-ECD; a.a. 1-614) fused to a human IgG1 Fc; experiment: ELISA

koff [1]: 0.0002 s⁻¹
IC50 [2]: 10 nM
B1: 38G7 nanobody (VHH)
VHH: EVQLVESGGGLVQAGGSLRLSCAASGRTFSSYVMGWFRQATGKEREFVATIAWDSGSTYYADSVKGRFTISRDNAKNTVHLQMNSLKPEDTAVYYCAASYNVYYNNYYYPISRDEYDYWGQGTQVTVSS
